The source of these data is patent US20140134690A1, “MICROBES AND METHODS FOR PRODUCING 1-PROPANOL” (University of Georgia Research Foundation, Inc., priority 2012, published 2014).

Test in all cases: cells, lysate or membranes named
Substrate in data set [1]: O=C(CO)COP(=O)(O)O
The class given is biochemical, C. acetobutylicum. The settings on record: other: substrate dihydroxyacetone phosphate 0.15-1.5 mM, crude extract, imidazole-HCl pH 7.0, 30° C. The source says: (§1) 1,2-Propanediol pathway branches from glycolysis and competes for the intermediate dihydroxyacetone phosphate, with the glycolytic pathway. […] We amplified the mgsA genes from the microorganisms: C. acetobutylicum (ATCC#824), B. subtilis 168, C. difficile R20291, E. coli MG1655, T. thermophilus HB27, K. pneumoniae MGH78578, P. fluorescens Pf-5, and R. eutropha H16 respectively. These genes were cloned and expressed in wild type E. coli BW25113 using eight plasmids pRJ1-pRJ8. Each gene was under the control of the IPTG-inducible pLlacO1 promoter. Using dihydroxyacetone-phosphate as the substrate, we successfully detected the functional expression of all mgsA genes in vitro, where the specific activities varied from 0.0052 U/mg to 0.1242 U/mg (Table 1). […] Without the over-expression of mgsA gene, we also detected the native expression of E. coli mgsA, which gave a specific activity of only 0.0008 U/mg, much lower than that of any over-expression.
(§2) Using the primers listed in Table 5, the mgsA genes were PCR amplified from the genomic DNA of C. acetobutylicum (ATCC824), B. subtilis 168, Clostridium difficile R20291, E. coli MG1655, Thermus thermophilus HB27, K. pneumoniae MGH78578, Pseudomonas fluorescens Pf-5, and Ralstonia eutropha H16 respectively. […]
(§3) The assay was carried out using a two-step procedure. […] The samples were diluted 10 times before measuring the absorbance at 550 nm.

Substrate in data set [2]: O=C(CO)COP(=O)(O)O
The class given is biochemical, B. subtilis. As to conditions: other: substrate dihydroxyacetone phosphate 0.15-1.5 mM, crude extract, imidazole-HCl pH 7.0, 30° C.
Source text: as §1, §2, §3

Substrate in data set [3]: O=C(CO)COP(=O)(O)O
The class given is biochemical, T. thermophilus. As to conditions: other: substrate dihydroxyacetone phosphate 0.15-1.5 mM, crude extract, imidazole-HCl pH 7.0, 30° C.
Source text: as §1, §2, §3

Substrate in data set [4]: O=C(CO)COP(=O)(O)O
The class given is biochemical, R. eutropha. As to conditions: other: substrate dihydroxyacetone phosphate 0.15-1.5 mM, crude extract, imidazole-HCl pH 7.0, 30° C.
Source text: as §1, §2, §3

Substrate in data set [5]: O=C(CO)COP(=O)(O)O
The class given is biochemical, P. fluorescens. As to conditions: other: substrate dihydroxyacetone phosphate 0.15-1.5 mM, crude extract, imidazole-HCl pH 7.0, 30° C.
Source text: as §1, §2, §3

Substrate in data set [6]: CC(=O)C=O
The class given is biochemical, E. coli. The settings on record: other: substrate methylglyoxal 20-120 mM, 0.25 mM NADH, crude extract, imidazole-HCl pH 7.0, 37° C. As to the method:
When the gene is over-expressed by pRJ10, the specific activity was determined to be 1.62±0.012 U/mg.

B1: Clostridium acetobutylicum (ATCC 824) methylglyoxal synthase (mgsA), wild type (Clostridium acetobutylicum ATCC 824) (protein)
chain: MNSKKKIALVAHDNRKKALISWCEANSEVLSNHSLCGTGTTAKLIKEATGLEVFPYKSGPMGGDQQIGAAIVNEDIDFMIFFWDPLTAQPHDPDVKALLRISVLYDIPIAMNESTAEFLIKSPIMKEQHERHIIDYYQKIRKDNF
With B1, the Km in data set [1] worked out at 0.776 ± 0.005 mM.

B2: Bacillus subtilis 168 methylglyoxal synthase (mgsA), wild type (Bacillus subtilis subsp. subtilis str. 168) (protein)
chain: MKIALIAHDKKKQDMVQFTTAYRDILKNHDLYATGTTGLKIHEATGLQIERFQSGPLGGDQQIGALIAANALDLVIFLRDPLTAQPHEPDVSALIRLCDVYSIPLATNMGTAEILVRTLDEGVFEFRDLLRGEEPNV
With B2, the Km in data set [2] worked out at 0.473 ± 0.070 mM.

B3: Thermus thermophilus HB27 methylglyoxal synthase (mgsA), wild type (Thermus thermophilus HB27) (protein)
chain: MKALALIAHDAKKDEMVAFCLRHKDVLARYPLLATGTTGARIQEATGLAVERVLSGPLGGDLQIGARVAEGKVLAVVFLQDPLTAKPHEPDVQALMRVCNVHGVPLATNLVAAEALIAWIRKGTPQ
On to B3, for which the Km in data set [3] came out at 2.118 ± 0.070 mM.

B4: Ralstonia eutropha H16 methylglyoxal synthase (mgsA), wild type (Cupriavidus necator H16) (protein)
chain: MTRPRIALIAHDHKKDDIVAFATRHRAFLSQCELLATGTTGGRLIDEVGLEVTRMLSGPWGGDLQIGAQLAVGLVRAVVFLRDPMTPQPHEPDINALVRACDVHNVPCATNVATAELLIAGLAREVDEAAAS
B4: the Km in data set [4] turned out to be 0.700 ± 0.030 mM.

B5: Pseudomonas fluorescens Pf-5 methylglyoxal synthase (mgsA), wild type (Pseudomonas protegens Pf-5) (protein)
chain: MIGISFTHKTMAARKRIALVAHDHCKAFLLEWAGRQKARLAEHELVATGTTGLLLSKHLGLPVESMISGPLGGDQQLGAQIAEQRVDLLVFFWDPFEPQPHDPDIKALLRVAAVWNIPVACNECSADYLLSSPLMNQAHEHRIPDYQAYLAGRG
Consider B5, for which, in data set [5], the Km came out at 1.560 ± 0.020 mM.

B6: E. coli MG1655 methylglyoxal reductase (ydjG), wild type (Escherichia coli K-12) (protein)
chain: MKKIPLGTTDITLSRMGLGTWAIGGGPAWNGDLDRQICIDTILEAHRCGINLIDTAPGYNFGNSEVIVGQALKKLPREQVVVETKCGIVWERKGSLFNKVGDRQLYKNLSPESIREEVAASLQRLGIDYIDIYMTHWQSVPPFFTPIAETVAVLNELKSEGKIRAIGAANVDADHIREYLQYGELDIIQAKYSILDRAMENELLPLCRDNGIVVQVYSPLEQGLLTGTITRDYVPGGARANKVWFQRENMLKVIDMLEQWQPLCARYQCTIPTLALAWILKQSDLISILSGATAPEQVRENVAALNINLSDADATLMREMAEALER
Regarding B6, the Km in data set [6] is 3.31 ± 0.02 mM.

By Km is commonly meant the substrate concentration at which the rate is half of its maximum.
